Columns and labels:
TNFR2, P20333 [1] = molecular target: T1, TNFR2, P20333; test: method not stated; conditions: remark: other sources report otherwise
T1 chain: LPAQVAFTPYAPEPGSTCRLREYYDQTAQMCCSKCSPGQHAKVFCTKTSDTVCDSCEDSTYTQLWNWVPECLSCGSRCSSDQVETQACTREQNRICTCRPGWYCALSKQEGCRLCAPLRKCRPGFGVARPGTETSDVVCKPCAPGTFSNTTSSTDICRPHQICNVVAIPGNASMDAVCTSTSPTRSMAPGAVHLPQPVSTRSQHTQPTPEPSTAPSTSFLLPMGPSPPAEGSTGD

TNFR2, P20333 [2] = molecular target: T1, TNFR2, P20333; test: method not stated; reference TNFα; conditions: remark: other sources report otherwise

B1: Progranulin (PGRN), P28799 18-593 (ligand)
chain: TRCPDGQFCPVACCLDPGGASYSCCRPLLDKWPTTLSRHLGGPCQVDAHCSAGHSCIFTVSGTSSCCPFPEAVACGDGHHCCPRGFHCSADGRSCFQRSGNNSVGAIQCPDSQFECPDFSTCCVMVDGSWGCCPMPQASCCEDRVHCCPHGAFCDLVHTRCITPTGTHPLAKKLPAQRTNRAVALSSSVMCPDARSRCPDGSTCCELPSGKYGCCPMPNATCCSDHLHCCPQDTVCDLIQSKCLSKENATTDLLTKLPAHTVGDVKCDMEVSCPDGYTCCRLQSGAWGCCPFTQAVCCEDHIHCCPAGFTCDTQKGTCEQGPHQVPWMEKAPAHLSLPDPQALKRDVPCDNVSSCPSSDTCCQLTSGEWGCCPIPEAVCCSDHQHCCPQGYTCVAEGQCQRGSEIVAGLEKMPARRASLSHPRDIGCDQHTSCPVGQTCCPSLGGSWACCQLPHAVCCEDRQHCCPAGYTCNVKARSCEKEVVSAQPATFLARSPHVGVKDVECGEGHFCHDNQTCCRDNRQGWACCPYRQGVCCADRRHCCPAGFRCAARGTKCLRREAPRWDAPLRDPALRQLL
- Kd (TNFR2, P20333 [1]): 1.52 nM
- fold higher binding affinity than TNFα (TNFR2, P20333 [2]): 600 fold

From US20190388508A1
